Consider 3 molecules from patent publication US20230183337A1 (UNIVERSIT D AIXMARSEILLE, published 2023).

One test deals with T1, Nectin-4 (SUM190 cells) (UniProt Q96NY8 32-510).
T1 chain: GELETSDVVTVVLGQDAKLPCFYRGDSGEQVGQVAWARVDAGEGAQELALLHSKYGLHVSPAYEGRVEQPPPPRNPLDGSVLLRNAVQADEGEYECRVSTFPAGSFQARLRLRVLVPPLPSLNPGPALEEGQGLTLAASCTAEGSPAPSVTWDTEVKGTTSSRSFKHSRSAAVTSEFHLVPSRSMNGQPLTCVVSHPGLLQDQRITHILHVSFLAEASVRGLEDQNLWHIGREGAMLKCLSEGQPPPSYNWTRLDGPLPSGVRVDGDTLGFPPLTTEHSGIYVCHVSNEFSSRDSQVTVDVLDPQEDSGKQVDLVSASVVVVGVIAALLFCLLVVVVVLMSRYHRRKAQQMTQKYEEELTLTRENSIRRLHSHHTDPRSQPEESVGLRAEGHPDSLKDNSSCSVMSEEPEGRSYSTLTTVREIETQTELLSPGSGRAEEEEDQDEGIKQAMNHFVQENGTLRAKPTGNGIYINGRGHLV
Put plainly: FACS.

Test [1] addresses T2, human Nectin-4 (cell surface nectin-4 on SUM190 tumor cells; nectin-4 in breast cancer tissues) (UniProt Q96NY8 32-510).
T2 chain: T1 chain
Put plainly: FACS.

Test [2] addresses T3, human Nectin-4 (cell surface nectin-4 on SUM190 tumor cells; nectin-4 in breast cancer tissues) (human, UniProt Q96NY8 32-510).
T3 construct: Endogenous nectin-4 of the human SUM190 breast cancer cell line (FACS) and of patient FFPE tumour tissue (IHC); also called PVRL4
T3 sequence: T1 chain
Nature of the test: FACS on SUM190 cells, serial dilutions of mAb.

B1: N41 (antibody, V domains shown)
VH: QVQLKQSGPGLVQPSQSLSITCTVSGFSLTNYGVHWVRQSPGKGLEWLGVIWSGGSTDYNAAFISRLSISKDTSKSQVFFKMNSLQADDTAIYYCARELIHAMDNWGQGTSVTVSS
VL: DIQMTQSPASLSVSVGETVTITCRASENIYSNLAWYQQKQGNSPQLLVFAATNLADGVPSRFSGSGSGTQYSLKINSLQSEDFGTYYCQHFWGTPTFGGGTKLEIK
Broadly, the EC50 is the concentration that produces a half-maximal response. Higher therefore signals weaker potency. B1 registered a half-maximal effective concentration (EC50) with Nectin-4 (SUM190 cells) of 0.052 µg/mL.

B2: 14A5 (antibody, V domains shown)
VH: EVLLQQSGPELVKPGASVKIPCKASGYTFTDYTMDWVKQSHGKSLEWIGDINPNNDVTMYNEKFKGRATLTVDKSSSTAYMEVRSLTSEDTAVYYCVRGRGFAYWGQGTLVTVSA
VL: DIVLTQSPASLIVSLGQRATISCRASQSVSTSSNSYMHWYQQKPGQPPKLLIRFASNLESGVPARFSGSGSGTYFTLNIHPVEEEDSATYYCQHSWEIPYTFGGGTKLEIK
With B2, in the test with Nectin-4 (SUM190 cells), the EC50 stood at 0.034 µg/mL.

B3: murine monoclonal antibody 5A12.2 (hybridoma CNCM I-5407) (antibody, V domains shown)
VH: QIQLQQSGAELVKPGASVTLSCKTSGFTFNSMYISWLKQKPGQSLEWIAWIYAGTGGTRFNQKFTGKVQLTVDTSSSTAYMQFSSLTTDDSAIYYCAIRSGFVPMDYWGQGTSVTVSS
VL: SIVMTQTPKFLLVSAGDRVTITCKASQSVSNDVAWYQQKPGQSPKLLIYYASNRYTGVPDRFTGSGYGTDFTFTISTVQAEDLAVYFCQQDYSSPWTFGGGTKLEIK
notes: Whole murine monoclonal antibody from a hybridoma with a kappa light chain; also called mAb 5A12.2; 5A12.2 mAb
Regarding B3, a half-maximal response in test [1] (EC50) required 0.018 µg/mL. The binding result in test [2] is reported as “binds”.
